Laboratory results as given in publication PMC7835958, “Unlike its Paralog LEDGF/p75, HRP-2 Is Dispensable for MLL-R Leukemogenesis but Important for Leukemic Cell Survival” (Cells, 2021).
One block for each binder: values may come before it.

Assays:
Settings in all cases: both partners purified
[1] = molecular target: T1, HRP-2_(469–549) (human, UniProt Q7Z4V5 469-549, 15N-labeled); assay: NMR titration; 20 µM 15N-labeled IBD (HRP-2 469–549 or LEDGF/p75 345–426) mixed with various concentrations of unlabeled synthetic MLL peptide (123–160); 15N/1H HSQC (SOFAST), 25 °C; KD from chemical shift perturbations
T1 construct: also called HRP-2-IBD; HRP-2 IBD; source: E. coli Rosetta2 (DE3), purified
T1 sequence (looked up): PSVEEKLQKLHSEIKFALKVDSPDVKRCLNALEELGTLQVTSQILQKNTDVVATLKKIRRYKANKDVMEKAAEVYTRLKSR

[2] = molecular target: T2, LEDGF/p75_(345–426) (human, UniProt O75475 345-426, 15N-labeled); assay: as above
T2 construct: also called LEDGF/p75-IBD; LEDGF/p75 IBD; source: E. coli Rosetta2 (DE3), purified
T2 sequence (looked up): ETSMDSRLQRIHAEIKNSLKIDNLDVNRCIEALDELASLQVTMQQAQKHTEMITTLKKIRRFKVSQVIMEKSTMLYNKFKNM

[3] = molecular target: T3, Full length flag-tagged LEDGF/p75 (human, UniProt O75475 1-530); assay: AlphaScreen or HTRF; out-competition: Flag-LEDGF/p75 (0.3 nM) preincubated with MLL_(1–160)–GST (10 nM) before titration of MBP-LEDGF/p75_(325–530), MBP-HRP-2_(470–552) or MBP alone
T3 construct: LEDGF/p75, full length; also called Flag-LEDGF/p75; flag-LEDGF/p75; source: E. coli Rosetta2 (DE3), purified

[4] = molecular target: T4, MBP-LEDGF/p75_(325–530) (human, UniProt O75475 325-530); assay: as above
T4 construct: LEDGF/p75 C-terminal fragment, residues 325-530; also called LEDGF_(325–530); MBP-fused C-terminal fragment of LEDGF/p75; source: E. coli Rosetta2 (DE3), purified
T4 sequence (looked up): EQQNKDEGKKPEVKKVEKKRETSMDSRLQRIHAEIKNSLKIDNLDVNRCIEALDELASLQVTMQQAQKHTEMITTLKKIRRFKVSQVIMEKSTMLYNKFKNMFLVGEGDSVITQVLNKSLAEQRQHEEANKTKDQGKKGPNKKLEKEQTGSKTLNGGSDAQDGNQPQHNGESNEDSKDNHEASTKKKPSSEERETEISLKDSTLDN

Kd [1]: 54.4 ± 2.2 µM | binding result [2]: binds
B1: synthetic MLL peptide (123–160) (peptide, UniProt Q03164 123-160, looked up)
peptide: GTNLRRFRAVFGESGGGGGSGEDEQFLGFGSDEEVRVR
notes: also called MLL-derived peptide; source: synthetic peptide

binding result [3]: binds | binding result [4]: binds
B2: MLL_(1–160)–GST (domain or fragment, UniProt Q03164 1-160, looked up)
chain: MAHSCRWRFPARPGTTGGGGGGGRRGLGGAPRQRVPALLLPPGPPVGGGGPGAPPSPPAVAAAAAAAGSSGAGVPGGAAAASAASSSSASSSSSSSSSASSGPALLRVGPGFDAALQVSAAIGTNLRRFRAVFGESGGGGGSGEDEQFLGFGSDEEVRVR
notes: MLL (MLL1, KMT2A) N-terminal fragment, residues 1-160; The printed name MLL_(1–160)–GST hints at a C-terminal GST; also called GST-tagged MLL_(1–160); GST-tagged N-terminal fragment of MLL; source: E. coli Rosetta2 (DE3), purified
